According to the supplement of paper PMC9112550, “Optimization of the antimicrobial peptide Bac7 by deep mutational scanning” (BMC Biology, 2022):

Test system: Escherichia coli TOP10
Experiment: shrunken log2 fold change of peptide-encoding DNA abundance (4.5 h post-induction vs induction); higher = less antimicrobial activity (less host growth inhibition)
Conditions: time post-induction: 4.5 h; library: site-saturation at positions 5, 18, 19, 20
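Note: peptides expressed intracellularly from a pBAD plasmid library in pooled LB shake-flask culture, induced with 0.3% L-arabinose, DNA abundance read by NGS, three biological replicates, DESeq2 with apeglm shrinkage.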

| Sequence | shrunken log2 fold change |
| --- | --- |
| RRIRDRPPRLPRPRPRPPQMPRP | 0.746 |
| RRIRERPPRLPRPRPRPNNIPRP | -0.787 |
| RRIRSRPPRLPRPRPRPCVAPRP | 0.0901 |
| RRIRTRPPRLPRPRPRPGRNPRP | -0.0275 |
| RRIRDRPPRLPRPRPRPLRRPRP | 0.463 |
| RRIRVRPPRLPRPRPRPYRDPRP | -0.278 |
| RRIRERPPRLPRPRPRPDWAPRP | 0.0306 |
| RRIRGRPPRLPRPRPRPFWPPRP | 0.653 |
| RRIRSRPPRLPRPRPRPFNWPRP | 0.0339 |
| RRIRNRPPRLPRPRPRPPAPPRP | 0.78 |
| RRIRARPPRLPRPRPRPKGFPRP | 0.102 |
| RRIRLRPPRLPRPRPRPCAHPRP | -0.417 |
| RRIRFRPPRLPRPRPRPICKPRP | -0.0703 |
| RRIRARPPRLPRPRPRPEILPRP | 0.74 |
| RRIRMRPPRLPRPRPRPYDRPRP | 0.043 |
| RRIRDRPPRLPRPRPRPANLPRP | -0.0687 |
| RRIRMRPPRLPRPRPRPMHMPRP | 0.0153 |
| RRIRLRPPRLPRPRPRPFQCPRP | 0.000653 |
| RRIRCRPPRLPRPRPRPHNMPRP | -0.82 |
| RRIRCRPPRLPRPRPRPCSMPRP | -0.0191 |
| RRIRQRPPRLPRPRPRPLGSPRP | 0.0483 |
| RRIRHRPPRLPRPRPRPWDNPRP | 0.0451 |
| RRIRRRPPRLPRPRPRPEQWPRP | -0.173 |
| RRIRQRPPRLPRPRPRPGNTPRP | 0.0649 |
| RRIRTRPPRLPRPRPRPSNDPRP | -0.557 |

| Sequence | shrunken log2 fold change |
| --- | --- |
| RRIRCRPPRLPRPRPRPKVGPRP | -0.0582 |
| RRIRPRPPRLPRPRPRPQAEPRP | 0.113 |
| RRIRGRPPRLPRPRPRPDRWPRP | 0.703 |
| RRIRLRPPRLPRPRPRPSMKPRP | -0.252 |
| RRIRERPPRLPRPRPRPLEKPRP | 0.094 |
| RRIRKRPPRLPRPRPRPWKYPRP | -0.067 |
| RRIRKRPPRLPRPRPRPIMPPRP | 0.099 |
| RRIRCRPPRLPRPRPRPHPEPRP | -0.168 |
| RRIRVRPPRLPRPRPRPQHTPRP | -0.0855 |
| RRIRTRPPRLPRPRPRPYVAPRP | -0.562 |
| RRIRRRPPRLPRPRPRPLQRPRP | 0.969 |
| RRIRYRPPRLPRPRPRPILMPRP | -0.0114 |
| RRIRIRPPRLPRPRPRPSWWPRP | -0.059 |
| RRIRDRPPRLPRPRPRPVRIPRP | 0.18 |
| RRIRHRPPRLPRPRPRPRKYPRP | -0.556 |
| RRIRERPPRLPRPRPRPKLVPRP | 0.0398 |
| RRIRIRPPRLPRPRPRPRARPRP | 0.456 |
| RRIRVRPPRLPRPRPRPVFDPRP | -0.079 |
| RRIRDRPPRLPRPRPRPTHDPRP | 0.666 |
| RRIRMRPPRLPRPRPRPGPKPRP | 1.81 |
| RRIRKRPPRLPRPRPRPKGWPRP | 0.61 |
| RRIRPRPPRLPRPRPRPYIEPRP | -0.322 |
| RRIRKRPPRLPRPRPRPVEYPRP | 0.0119 |
| RRIRARPPRLPRPRPRPQILPRP | -0.0605 |
| RRIRVRPPRLPRPRPRPFQIPRP | -0.603 |

| Sequence | shrunken log2 fold change |
| --- | --- |
| RRIRRRPPRLPRPRPRPQQRPRP | 0.795 |
| RRIRCRPPRLPRPRPRPNHKPRP | -0.862 |
| RRIRARPPRLPRPRPRPWQLPRP | -0.106 |
| RRIRARPPRLPRPRPRPSQMPRP | 0.0732 |
| RRIRYRPPRLPRPRPRPSDRPRP | -0.307 |
| RRIRDRPPRLPRPRPRPDMKPRP | -0.00136 |
| RRIRLRPPRLPRPRPRPMYCPRP | -0.0105 |
| RRIRSRPPRLPRPRPRPSLMPRP | -0.201 |
| RRIRDRPPRLPRPRPRPDVSPRP | -0.00965 |
| RRIRWRPPRLPRPRPRPMIPPRP | 0.0901 |
| RRIRERPPRLPRPRPRPMSSPRP | -0.000155 |
| RRIRDRPPRLPRPRPRPMKFPRP | -0.00192 |
| RRIRIRPPRLPRPRPRPTRAPRP | 0.561 |
| RRIRGRPPRLPRPRPRPNCSPRP | 0.99 |
| RRIRHRPPRLPRPRPRPPPEPRP | 0.836 |
| RRIRMRPPRLPRPRPRPRMDPRP | 0.356 |
| RRIRSRPPRLPRPRPRPLDDPRP | -0.0921 |
| RRIRDRPPRLPRPRPRPKDEPRP | 0.0229 |
| RRIRRRPPRLPRPRPRPPLPPRP | 1.06 |
| RRIRIRPPRLPRPRPRPLQSPRP | -0.0353 |
| RRIRVRPPRLPRPRPRPVFNPRP | -0.392 |
| RRIRNRPPRLPRPRPRPVVEPRP | -0.00885 |
| RRIRERPPRLPRPRPRPWLLPRP | -1.56 |
| RRIRCRPPRLPRPRPRPNYDPRP | -0.672 |
| RRIRFRPPRLPRPRPRPFDKPRP | 0.00679 |
